Sequences and labels used below:
T1: APBA2_1, Q99767
T1 sequence (Q99767 563-664, limits assumed, looked up): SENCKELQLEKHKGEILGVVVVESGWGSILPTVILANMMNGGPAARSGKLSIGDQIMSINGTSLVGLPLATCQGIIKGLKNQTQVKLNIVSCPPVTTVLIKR

T2: APBA3_1, O96018
T2 sequence (O96018 389-490, limits assumed, looked up): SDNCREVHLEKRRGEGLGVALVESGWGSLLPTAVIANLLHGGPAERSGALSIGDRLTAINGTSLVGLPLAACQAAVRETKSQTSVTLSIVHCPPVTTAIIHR

T3: DFNB31_2, Q9P202
T3 sequence (Q9P202 274-371, limits assumed, looked up): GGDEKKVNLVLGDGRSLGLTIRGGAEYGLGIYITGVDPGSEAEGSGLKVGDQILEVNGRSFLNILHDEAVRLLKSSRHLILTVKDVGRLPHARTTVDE

T4: DFNB31_3, Q9P202
T4 sequence (Q9P202 811-907, limits assumed, looked up): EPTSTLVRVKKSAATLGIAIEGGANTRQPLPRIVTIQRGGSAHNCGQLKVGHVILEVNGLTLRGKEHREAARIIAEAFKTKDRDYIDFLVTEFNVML

T5: DLG3_2, Q92796
T5 sequence (Q92796 221-321, limits assumed, looked up): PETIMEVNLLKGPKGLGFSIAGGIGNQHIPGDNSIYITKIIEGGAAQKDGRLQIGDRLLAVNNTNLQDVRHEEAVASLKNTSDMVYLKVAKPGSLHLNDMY

T6: DLG3_3, Q92796
T6 sequence (Q92796 374-475, limits assumed, looked up): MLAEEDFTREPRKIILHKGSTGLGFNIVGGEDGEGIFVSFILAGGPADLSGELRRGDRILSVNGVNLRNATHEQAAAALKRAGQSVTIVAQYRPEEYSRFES

T7: HTRA3, P83110
T7 sequence (P83110 354-453, limits assumed, looked up): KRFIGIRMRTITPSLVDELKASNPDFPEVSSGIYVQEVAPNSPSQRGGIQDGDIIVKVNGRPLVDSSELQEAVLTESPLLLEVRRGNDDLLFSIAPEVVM

T8: MPP6, Q9NZW5
T8 sequence (Q9NZW5 125-219, limits assumed, looked up): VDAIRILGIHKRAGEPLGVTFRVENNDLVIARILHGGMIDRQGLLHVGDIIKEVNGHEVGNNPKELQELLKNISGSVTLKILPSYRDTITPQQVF

T9: PARD3B_1, Q8TEW8
T9 sequence (Q8TEW8 196-299, limits assumed, looked up): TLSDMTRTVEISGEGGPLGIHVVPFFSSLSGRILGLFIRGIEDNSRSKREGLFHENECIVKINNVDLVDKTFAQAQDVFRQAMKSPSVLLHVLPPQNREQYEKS

T10: SNTA1, Q13424
T10 sequence (Q13424 82-180, limits assumed, looked up): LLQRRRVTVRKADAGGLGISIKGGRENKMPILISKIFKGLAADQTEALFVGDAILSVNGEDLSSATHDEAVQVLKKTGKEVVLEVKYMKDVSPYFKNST

T11: SNTG1, Q9NSN8
T11 sequence (Q9NSN8 52-150, limits assumed, looked up): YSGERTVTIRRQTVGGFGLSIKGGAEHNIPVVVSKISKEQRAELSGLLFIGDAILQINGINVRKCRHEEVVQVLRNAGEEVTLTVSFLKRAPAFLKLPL

B1: MUC3A, MUC3B, Q02505;Q9H195 (peptide)
chain: KRPEMTSSSV
B2: MYPN, Q86TC9 (peptide)
chain: SRSVVESDEL

Sequence of Inadl_9, Q8NI35 (Q8NI35 1530-1615): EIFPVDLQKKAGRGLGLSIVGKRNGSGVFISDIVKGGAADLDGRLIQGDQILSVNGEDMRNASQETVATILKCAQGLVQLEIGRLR
Sequence of NHERF2_2, Q15599 (Q15599 142-238): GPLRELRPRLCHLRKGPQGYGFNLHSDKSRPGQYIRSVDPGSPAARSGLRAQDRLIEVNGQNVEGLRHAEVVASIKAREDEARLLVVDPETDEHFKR
Sequence of Inadl_2, Q8NI35 (Q8NI35 238-335): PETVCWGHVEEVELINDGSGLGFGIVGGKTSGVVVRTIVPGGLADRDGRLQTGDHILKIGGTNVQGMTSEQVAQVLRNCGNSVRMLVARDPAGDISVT
Sequence of LAP2, Q96RT1 (Q96RT1 other isoform, or with tags, fused parts or gaps): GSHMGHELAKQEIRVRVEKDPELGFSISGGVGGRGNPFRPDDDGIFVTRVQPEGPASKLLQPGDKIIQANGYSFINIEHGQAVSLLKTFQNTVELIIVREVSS
Sequence of SCRIB_1, Q14160 (Q14160 718-814): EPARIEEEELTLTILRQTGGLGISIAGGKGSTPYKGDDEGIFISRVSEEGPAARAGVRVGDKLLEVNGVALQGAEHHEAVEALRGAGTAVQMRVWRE

The target in one test is T1, APBA2_1, Q99767. Nature of the test: holdup assay. Details: key: below the threshold = too weak to quantify, mostly under pKd 3.1 to 4. The settings on record: plain residues with an end cap or a label only (N-terminal biotin on a linker: ado-ado).
Take B1: the pKd entry is reported as “below the threshold”.
As to B2, the pKd result was “below the threshold”.

Another test concerns the target T2, APBA3_1, O96018. The test is described as follows: holdup assay. More on the design: key: below the threshold = too weak to quantify, mostly under pKd 3.1 to 4. The settings on record: plain residues with an end cap or a label only (N-terminal biotin on a linker: ado-ado).
For the molecule B1, the pKd entry is on record as “below the threshold”.
Consider B2, for which the pKd entry was “below the threshold”.

The next test has as its target T3, DFNB31_2, Q9P202. The test is described as follows: holdup assay. More on the design: key: below the threshold = too weak to quantify, mostly under pKd 3.1 to 4. The following applies: plain residues with an end cap or a label only (N-terminal biotin on a linker: ado-ado).
In the case of B1, the pKd result was “below the threshold”.
Turning to B2, the pKd entry is on record as “below the threshold”.

The target of the next test is T4, DFNB31_3, Q9P202. Nature of the test: holdup assay. Details: key: below the threshold = too weak to quantify, mostly under pKd 3.1 to 4. The settings on record: plain residues with an end cap or a label only (N-terminal biotin on a linker: ado-ado).
Take B1: the pKd result was “below the threshold”.
The same measure, in the same setting: as for B2, the entry is “below the threshold”.

The next test has as its target T5, DLG3_2, Q92796. The test is described as follows: holdup assay. More on the design: key: below the threshold = too weak to quantify, mostly under pKd 3.1 to 4. The settings on record: plain residues with an end cap or a label only (N-terminal biotin on a linker: ado-ado).
Molecule B1 had a pKd of 4.26.
The same measure, in the same setting: under B2 stands “below the threshold”.

For a further test, the target named is T6, DLG3_3, Q92796. The test is described as follows: holdup assay. More on the design: key: below the threshold = too weak to quantify, mostly under pKd 3.1 to 4. The following applies: plain residues with an end cap or a label only (N-terminal biotin on a linker: ado-ado).
In the case of B1, the pKd was 1.84.
With B2, the pKd entry is reported as “below the threshold”.

The target in the next test is DLG4_3, P78352. The test is described as follows: holdup assay. More on the design: key: below the threshold = too weak to quantify, mostly under pKd 3.1 to 4. The following applies: plain residues with an end cap or a label only (N-terminal biotin on a linker: ado-ado).
Sequence of DLG4_3, P78352 (P78352 306-403): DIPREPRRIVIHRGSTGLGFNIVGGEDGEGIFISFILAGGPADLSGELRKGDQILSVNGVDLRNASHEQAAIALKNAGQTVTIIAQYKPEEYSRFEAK
Consider B1, for which the pKd was found to be 1.91.
On to B2, for which the pKd result is reported as “below the threshold”.

A further test deals with GRASP, Q7Z6J2. The test is described as follows: holdup assay. Details: key: below the threshold = too weak to quantify, mostly under pKd 3.1 to 4. The following applies: plain residues with an end cap or a label only (N-terminal biotin on a linker: ado-ado).
Sequence of GRASP, Q7Z6J2 (Q7Z6J2 96-193): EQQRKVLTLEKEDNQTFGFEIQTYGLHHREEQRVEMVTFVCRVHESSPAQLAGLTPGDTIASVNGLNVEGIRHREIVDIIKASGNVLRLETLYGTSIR
In turn, B2 yielded a pKd of 4.14.

A further test deals with GRIP2_5, Q9C0E4. The test is described as follows: holdup assay. More on the design: key: below the threshold = too weak to quantify, mostly under pKd 3.1 to 4. The settings on record: plain residues with an end cap or a label only (N-terminal biotin on a linker: ado-ado).
Sequence of GRIP2_5, Q9C0E4 (Q9C0E4 544-642): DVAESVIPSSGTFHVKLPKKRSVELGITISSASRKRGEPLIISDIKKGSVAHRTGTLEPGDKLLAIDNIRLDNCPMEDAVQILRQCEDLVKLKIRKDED
B1: the pKd entry is on record as “below the threshold”.
For the molecule B2, the pKd entry is recorded as “below the threshold”.

The target in a further test is HTRA1, Q92743. Nature of the test: holdup assay. More on the design: key: below the threshold = too weak to quantify, mostly under pKd 3.1 to 4. The following applies: plain residues with an end cap or a label only (N-terminal biotin on a linker: ado-ado).
Sequence of HTRA1, Q92743 (Q92743 360-477): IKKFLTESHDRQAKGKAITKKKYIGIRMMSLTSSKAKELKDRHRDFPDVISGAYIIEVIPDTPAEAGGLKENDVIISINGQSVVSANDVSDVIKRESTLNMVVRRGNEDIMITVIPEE
As for B1, the pKd result was “below the threshold”.
For B2, the pKd was determined as 3.69.

Another test addresses T7, HTRA3, P83110. The test is described as follows: holdup assay. More on the design: key: below the threshold = too weak to quantify, mostly under pKd 3.1 to 4. The following applies: plain residues with an end cap or a label only (N-terminal biotin on a linker: ado-ado).
For B1, the pKd result was “below the threshold”.
On to B2, for which the pKd entry is “below the threshold”.

The target in another test is IL16_1, Q14005. Nature of the test: holdup assay. More on the design: key: below the threshold = too weak to quantify, mostly under pKd 3.1 to 4. The settings on record: plain residues with an end cap or a label only (N-terminal biotin on a linker: ado-ado).
Sequence of IL16_1, Q14005 (Q14005 210-306): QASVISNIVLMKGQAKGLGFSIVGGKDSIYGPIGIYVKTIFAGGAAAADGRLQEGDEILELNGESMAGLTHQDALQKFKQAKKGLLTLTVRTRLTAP
With B2, the pKd result is on record as “below the threshold”.

For the next test, the target named is IL16_4, Q14005. The test is described as follows: holdup assay. Details: key: below the threshold = too weak to quantify, mostly under pKd 3.1 to 4. The settings on record: plain residues with an end cap or a label only (N-terminal biotin on a linker: ado-ado).
Sequence of IL16_4, Q14005 (Q14005 1229-1329): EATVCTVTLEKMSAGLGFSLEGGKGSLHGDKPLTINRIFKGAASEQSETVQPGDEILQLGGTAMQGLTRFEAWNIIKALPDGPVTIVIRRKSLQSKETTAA
In turn, B1 came in with a pKd of 1.87.
Same read-out and setting: under B2 stands “below the threshold”.

A further test concerns the target Inadl_2, Q8NI35. Nature of the test: holdup assay. More on the design: key: below the threshold = too weak to quantify, mostly under pKd 3.1 to 4. The following applies: plain residues with an end cap or a label only (N-terminal biotin on a linker: ado-ado).
On to B1, for which the pKd result is given as “below the threshold”.
Still for that read-out and setting: under B2 stands “below the threshold”.

For the next test, the target named is Inadl_6, Q8NI35. Nature of the test: holdup assay. Details: key: below the threshold = too weak to quantify, mostly under pKd 3.1 to 4. The settings on record: plain residues with an end cap or a label only (N-terminal biotin on a linker: ado-ado).
Sequence of Inadl_6, Q8NI35 (Q8NI35 1058-1167): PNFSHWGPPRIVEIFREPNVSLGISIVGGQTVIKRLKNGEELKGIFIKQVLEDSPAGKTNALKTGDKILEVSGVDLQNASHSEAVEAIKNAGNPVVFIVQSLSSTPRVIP
Turning to B1, the pKd result is listed as “below the threshold”.
Turning to B2, the pKd result is given as “below the threshold”.

The next test has as its target Inadl_9, Q8NI35. Nature of the test: holdup assay. Details: key: below the threshold = too weak to quantify, mostly under pKd 3.1 to 4. The following applies: plain residues with an end cap or a label only (N-terminal biotin on a linker: ado-ado).
Consider B1, for which the pKd worked out at 3.6.
For B2, the pKd result was “below the threshold”.

The next test has as its target LAP2, Q96RT1. The test is described as follows: holdup assay. The following applies: plain residues with an end cap or a label only (N-terminal biotin on a linker: ado-ado). Details: key: below the threshold = too weak to quantify, mostly under pKd 3.1 to 4.
Take B2: the pKd entry is “below the threshold”.

A further test deals with LNX1_2, Q8TBB1. Nature of the test: holdup assay. More on the design: key: below the threshold = too weak to quantify, mostly under pKd 3.1 to 4. The settings on record: plain residues with an end cap or a label only (N-terminal biotin on a linker: ado-ado).
Sequence of LNX1_2, Q8TBB1 (Q8TBB1 371-470): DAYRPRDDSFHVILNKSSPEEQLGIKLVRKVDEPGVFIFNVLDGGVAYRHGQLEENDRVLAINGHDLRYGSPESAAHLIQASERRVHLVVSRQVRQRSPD
For B1, the pKd result is on record as “below the threshold”.
Consider B2, for which the pKd entry is on record as “below the threshold”.

The target in the next test is MAGI2_4, Q86UL8. The test is described as follows: holdup assay. Details: key: below the threshold = too weak to quantify, mostly under pKd 3.1 to 4. The settings on record: plain residues with an end cap or a label only (N-terminal biotin on a linker: ado-ado).
Sequence of MAGI2_4, Q86UL8 (Q86UL8 772-865): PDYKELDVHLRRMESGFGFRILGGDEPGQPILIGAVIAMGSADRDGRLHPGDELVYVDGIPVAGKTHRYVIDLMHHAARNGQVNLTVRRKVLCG
Regarding B1, the pKd was found to be 1.79.
On the same count and under the same terms, under B2 stands “below the threshold”.

The target of another test is MAST1, Q9Y2H9. Nature of the test: holdup assay. Details: key: below the threshold = too weak to quantify, mostly under pKd 3.1 to 4. The following applies: plain residues with an end cap or a label only (N-terminal biotin on a linker: ado-ado).
Sequence of MAST1, Q9Y2H9 (Q9Y2H9 962-1065): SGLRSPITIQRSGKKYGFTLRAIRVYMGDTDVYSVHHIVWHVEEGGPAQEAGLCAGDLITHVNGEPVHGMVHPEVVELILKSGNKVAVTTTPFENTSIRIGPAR
In turn, B1 gave a pKd of 4.17.
For B2, the pKd result is listed as “below the threshold”.

Another test has as its target T8, MPP6, Q9NZW5. The test is described as follows: holdup assay. Details: key: below the threshold = too weak to quantify, mostly under pKd 3.1 to 4. The following applies: plain residues with an end cap or a label only (N-terminal biotin on a linker: ado-ado).
With B1, the pKd entry is recorded as “below the threshold”.
With B2, the pKd result was “below the threshold”.

Another test addresses NHERF2_2, Q15599. The test is described as follows: holdup assay. More on the design: key: below the threshold = too weak to quantify, mostly under pKd 3.1 to 4. The following applies: plain residues with an end cap or a label only (N-terminal biotin on a linker: ado-ado).
On to B1, for which the pKd result is “below the threshold”.
Take B2: the pKd was 3.86.

For the next test, the target named is T9, PARD3B_1, Q8TEW8. Nature of the test: holdup assay. More on the design: key: below the threshold = too weak to quantify, mostly under pKd 3.1 to 4. The following applies: plain residues with an end cap or a label only (N-terminal biotin on a linker: ado-ado).
Consider B1, for which the negative logarithm of the Kd (pKd) entry was “below the threshold”.
On the same count and under the same terms, under B2 stands “below the threshold”.

The next test concerns the target SCRIB_1, Q14160. The test is described as follows: holdup assay. More on the design: key: below the threshold = too weak to quantify, mostly under pKd 3.1 to 4. The settings on record: plain residues with an end cap or a label only (N-terminal biotin on a linker: ado-ado).
In the case of B2, the pKd worked out at 3.49.

For the next test, the target named is T10, SNTA1, Q13424. The test is described as follows: holdup assay. More on the design: key: below the threshold = too weak to quantify, mostly under pKd 3.1 to 4. The following applies: plain residues with an end cap or a label only (N-terminal biotin on a linker: ado-ado).
In the case of B1, the pKd was determined as 1.76.
For B2, the pKd came to 3.6.

For a further test, the target named is T11, SNTG1, Q9NSN8. The test is described as follows: holdup assay. More on the design: key: below the threshold = too weak to quantify, mostly under pKd 3.1 to 4. The settings on record: plain residues with an end cap or a label only (N-terminal biotin on a linker: ado-ado).
The molecule B1 had a pKd of 4.08.
For B2, the pKd result is listed as “below the threshold”.

The values are drawn from article PMC9482650, “Quantitative fragmentomics allow affinity mapping of interactomes” (Nature Communications, 2022).
